Consider one substance from patent US12202907B2, “Nucleic acids encoding and methods of producing proteins comprising antibody chains” (Innate Pharma, priority 2018, dated 2025).

Changes are numbered by the printed parent chain.

Assay [1] concerns the target T1, human Ramos lymphoma cells (CD39) (Homo sapiens, UniProt P49961).
T1 construct: cells that endogenously express CD39 at their surface; host or cells: Ramos
T1 sequence (P49961 1-510): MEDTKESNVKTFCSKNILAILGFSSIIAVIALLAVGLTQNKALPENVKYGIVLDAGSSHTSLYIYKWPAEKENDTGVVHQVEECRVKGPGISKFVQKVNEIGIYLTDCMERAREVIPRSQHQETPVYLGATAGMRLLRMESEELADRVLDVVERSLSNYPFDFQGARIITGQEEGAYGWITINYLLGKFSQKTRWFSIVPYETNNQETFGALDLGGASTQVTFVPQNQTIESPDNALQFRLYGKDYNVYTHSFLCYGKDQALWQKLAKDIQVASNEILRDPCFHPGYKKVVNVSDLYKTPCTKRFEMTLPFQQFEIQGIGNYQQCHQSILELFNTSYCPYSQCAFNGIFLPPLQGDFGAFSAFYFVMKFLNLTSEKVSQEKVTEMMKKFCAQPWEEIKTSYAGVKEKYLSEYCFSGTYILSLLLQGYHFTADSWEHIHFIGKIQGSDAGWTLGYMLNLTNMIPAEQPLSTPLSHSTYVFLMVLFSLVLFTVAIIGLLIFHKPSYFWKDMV
Kind of assay: Antibody titration on Ramos cells by flow cytometry. The following applies: qualitative. The format is binding. Here is the method:
(§1) Antibody I-394 was tested in two repeated experiments for binding to CHO cells expressing human CD39, CHO cells expressing cynomolgus (Macaca fascicularis) CD39, CHO cells expressing murine CD39, and human Ramos lymphoma cells (ATCC™, reference CRL-1596). Cells were incubated with various concentration of unlabeled anti-CD39 antibody from 30 μg/ml to 5×10^−4 μg/ml, for 30 minutes at 4° C. After washes, cells were incubated with Goat anti-mouse H+L labeled secondary antibody for 30 min at 4° C.
(In general: Flow cytometry measures light scatter and fluorescence of single cells or particles in a stream.)

Assay [2] has as its system CHO cells expressing cynomolgus (Macaca fascicularis) CD39. Put plainly: Antibody titration on CHO-cyCD39 by flow cytometry. As to conditions: qualitative. The format is binding. Here is the method:
as §1

Assay [3] concerns the target T2, Human CD39-L2 (NTPDase6, ENTPD6) (Homo sapiens, UniProt O75354, K202E).
T2 sequence (O75354 1-484 K202E): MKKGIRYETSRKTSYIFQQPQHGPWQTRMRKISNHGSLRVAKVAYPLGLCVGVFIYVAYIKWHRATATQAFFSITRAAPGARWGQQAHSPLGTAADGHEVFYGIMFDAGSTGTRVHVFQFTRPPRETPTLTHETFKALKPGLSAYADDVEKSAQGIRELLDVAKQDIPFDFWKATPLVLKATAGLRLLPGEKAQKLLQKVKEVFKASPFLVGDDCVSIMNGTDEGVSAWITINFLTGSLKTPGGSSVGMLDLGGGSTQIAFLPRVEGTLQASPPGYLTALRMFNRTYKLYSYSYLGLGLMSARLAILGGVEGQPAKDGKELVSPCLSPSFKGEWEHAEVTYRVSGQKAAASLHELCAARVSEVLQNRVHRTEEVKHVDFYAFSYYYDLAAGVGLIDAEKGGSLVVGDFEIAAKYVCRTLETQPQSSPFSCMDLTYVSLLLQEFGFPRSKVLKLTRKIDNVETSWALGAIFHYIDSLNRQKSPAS
Put plainly: ELISA titration on CD39-L2. The format is binding. As to the method: Antibody I-394 was tested for binding to recombinant human CD39 isoforms (Rec-huCD39 isoforms) having amino acid sequences shown below were coated in 96-well plate in PBS 1X at 500 ng/ml or 1 μg/ml at 4° C. overnight. Wells were washed in TBS Tween® 20 (polysorbate 20), and further saturated 2H at RT in TBS Blocking buffer. Dose range concentration of primary antibody was incubated in TBS blocking buffer for 2 h at RT. Wells were washed in TBS Tween® 20 (polysorbate 20). […] Optical density was measured on Enspire™ at OD=450.
In general terms: ELISA stands for enzyme-linked immunosorbent assay.

The target in assay [4] is T3, CD39 mutants transfected in Hek-293T cells (Homo sapiens, UniProt P49961, E143A/N99A/Q96A/R147E).
T3 construct: expressed in transfected cells; host or cells: HEK293T
T3 sequence (P49961 1-510 Q96A/N99A/E143A/R147E): T1 sequence (P49961 1-510) with Q96A, N99A, E143A, R147E
Kind of assay: Epitope mapping: binding to CD39 mutants by flow cytometry. As to conditions: mutant 5: Q96A, N99A, E143A, R147E. Here is the method: CD39 mutants were generated by PCR. The sequences amplified were run on agarose gel and purified using the Macherey Nagel PCR Clean-Up Gel Extraction kit (reference 740609). The purified PCR products generated for each mutant were then ligated into an expression vector, with the ClonTech InFusion system. The vectors containing the mutated sequences were prepared as Miniprep and sequenced. After sequencing, the vectors containing the mutated sequences were prepared as Midiprep using the Promega PureYield™ Plasmid Midiprep System. HEK293T cells were grown in DMEM medium (Invitrogen), transfected with vectors using Invitrogen's Lipofectamine 2000 and incubated at 37° C. in a CO2 incubator for 48 hours prior to testing for transgene expression. The targeted amino acid mutations in the table 1 below are shown using numbering of SEQ ID NO: 1.
In order to define the epitopes of anti-CD39 antibodies, we designed CD39 mutants defined by substitutions of amino acids exposed at the molecular surface over the surface of CD39.
Dose-ranges of I-394 (10-2.5-0.625-0.1563-0.0391-0.0098-0.0024-0.0006 μg/ml) are tested on the 20 generated mutants by flow cytometry. […] Mutant 5 contains amino acid substitutions at residues Q96, N99, E143 and R147. […]

“I-394: anti-CD39 antibody, VH SEQ ID NO: 6, VL SEQ ID NO: 7, human IgG1 Fc with L234A/L235E/G237A/A330S/P331S”: the “binding to Ramos lymphoma cells” value in assay [1] was “bound”. Moreover, in assay [2], the “binding to cells expressing cynomolgus CD39 (CHO-cyCD39)” value was “bound”. For the same substance, the “binding to CD39-L2 in ELISA” value in assay [3] was “not to any of the isoforms CD39-L1, -L2, -L3 or -L4”. Also, the “binding to cells expressing mutant 5 of CD39” value in assay [4] is “strongly reduced binding to mutant 5 (but with some residual binding to mutant 5)”.
